Laboratory results: publication PMC10987521, “An all-in-one tetrazine reagent for cysteine-selective labeling and bioorthogonal activable prodrug construction” (Nature Communications, 2024)
Like-named read-outs stand apart in the source and are kept apart here.

Legend:
[1] = assay type: physicochemical; settings: PBS pH 7.4, 10% DMSO, 37 °C; for intact (%) under 10 mM GSH at 2 μM: 520 nm HPLC–MS; for intact (%) under 10 mM GSH: 520 nm HPLC–MS (PyTz UV–Vis)
Description: All tetrazine compounds were diluted to a concentration of 50 μM or 2 μM using PBS (10% DMSO, pH 7.4). A stock solution of GSH (400 mM in PBS) was then added to achieve a final concentration of 10 mM. The mixture was homogenized and incubated at 37 °C for 12 h. The stability of the compounds (including all peptide conjugates and PmTz) was assessed by measuring the decrease in peak area at 520 nm (with the initial peak area at 0 min defined as 100%). This measurement was monitored by HPLC–MS. Similarly, the stability of PyTz was determined by monitoring the decrease in peak intensity at 520 nm using UV–Vis. Statistical analysis was performed on data from three replicates to calculate the mean and standard deviation. […]
Response 1: We appreciate your comment. We conducted stability tests on RGD-Dox and RGD-SN-38 in 10 mM GSH at a concentration of 2 μM, which is below the critical micelle concentrations. After incubating at 37 °C for 12 hours, we observed that 95% of RGD-Dox and 85% of RGD-SN-38 remained intact. This stability is slightly less than […]
the observed stability is intrinsic to the peptide-drug conjugates, with a slight enhancement due to micelle […]
concentrations, after 12 hours of incubation at 37 °C (Figure S46). […]
intrinsic to the PDCs, with a slight enhancement by micelle formation.
Details of these experiments have been included in the Supplementary Information (Page S42), as outlined below:
RGD-Dox and RGD-SN-38 were diluted to a concentration of 2 μM using PBS (10% DMSO, pH 7.4). A stock solution of GSH (400 mM in PBS) was then added to achieve a final concentration of 10 mM. The mixture was homogenized and incubated at 37 °C for 12 hours. Stability was assessed by measuring the decrease in peak area at 520 nm (with the initial peak area at 0 min defined as 100%). This measurement was monitored by HPLC–MS. Statistical analysis was performed on data from three replicates to calculate the mean and standard deviation.

Stability in FBS (serum) = assay type: in vitro ADME; settings: for remaining at 1 h, 50 μM / remaining at 2 h, 50 μM / remaining at 3 h, 50 μM / RGD-Dox (%): stability in the FBS; for remaining at 1 h, 50 μM / remaining at 2 h, 50 μM / remaining at 3 h, 50 μM: read-out: RGD-Dox (%)
Description: The results are shown as the mean ± SD. Source data are provided as a Source Data file. […]
Supplementary Fig. 48. Stability of RGD-Dox in the 50% FBS. RGD-Dox was diluted to a concentration of 50 μM
using 50% FBS/PBS (10% DMSO). The mixture was homogenized and incubated at 37 °C. The stability of RGD-Dox
was assessed by measuring the decrease in peak area at 520 nm (with the initial peak area at 0 min defined as 100%).
This measurement was monitored by HPLC–MS. Independent measurements were taken three times. The results are
shown as the mean ± SD. Source data are provided as a Source Data file. […]
Source data are provided as a Source Data file.

LX2 cells = test: Cell uptake by fluorescence imaging, LX2; assay type: cell-based, Human; settings: αvβ3-negative, 10 μM, 2 h
B16F10 cells [2] = test: Comparison of cell uptake between RGD-Dox and Dox using flow cytometry; assay type: cell-based, Mouse
Description: B16F10 cells were cultured for 48 h. […]
12.1 Calculation of the fluorescence coefficient (F c)
The Fc was the radio calculated
12.2 Uptake calculation of the B16F10 cells […]
deviation were analyzed using Origin Pro 2015.
B16F10 cells, characterized by α vβ3
Following the incubation period, the
Subsequently, the cells were trypsinized and underwent three PBS rinses. […]

B16F10 cells [3] = test: Cellular uptake of RGD-Dox over various time intervals using flow cytometry; assay type: cell-based, Mouse

For COc1cccc2c1C(=O)c1c(O)c3c(c(O)c1C2=O)C[C@@](O)(C(=O)CO)C[C@@H]3O[C@H]1C[C@H](NC(=O)OCc2nnc(CCSC[C@@H]3NC(=O)[C@@H](Cc4ccc(O)cc4)NC(=O)[C@H](CC(=O)O)NC(=O)CNC(=O)[C@H](CCCNC(=N)N)NC3=O)nn2)[C@H](O)[C@H](C)O1 [RGD-Dox], the “intact (%) under 10 mM GSH at 2 μM” value ([1]; 1 h, Data 1, 2 μM (below CMC)) was 98%, the “intact (%) under 10 mM GSH” value ([1]; 1 h, Data 1, 50 μM) was 98.414% and the “intact (%) under 10 mM GSH at 2 μM” value ([1]; 1 h, Data 2, 2 μM (below CMC)) was 96.5%. The “intact (%) under 10 mM GSH” value ([1]; 1 h, Data 2, 50 μM) was 98.1%, the “intact (%) under 10 mM GSH at 2 μM” value ([1]; 1 h, Data 3, 2 μM (below CMC)) was 98% and the “intact (%) under 10 mM GSH” value ([1]; 1 h, Data 3, 50 μM) was 97%. The “intact (%) under 10 mM GSH at 2 μM” value ([1]; 3 h, Data 1, 2 μM (below CMC)) was 93.4%, the “intact (%) under 10 mM GSH” value ([1]; 3 h, Data 1, 50 μM) was 95.9241% and the “intact (%) under 10 mM GSH at 2 μM” value ([1]; 3 h, Data 2, 2 μM (below CMC)) was 94.4%. The “intact (%) under 10 mM GSH” value ([1]; 3 h, Data 2, 50 μM) was 96.1928%, the “intact (%) under 10 mM GSH at 2 μM” value ([1]; 3 h, Data 3, 2 μM (below CMC)) was 94.5% and the “intact (%) under 10 mM GSH” value ([1]; 3 h, Data 3, 50 μM) was 97.3114%. The “intact (%) under 10 mM GSH at 2 μM” value ([1]; 5 h, Data 1, 2 μM (below CMC)) was 94.7%, the “intact (%) under 10 mM GSH at 2 μM” value ([1]; 5 h, Data 2, 2 μM (below CMC)) was 95% and the “intact (%) under 10 mM GSH at 2 μM” value ([1]; 5 h, Data 3, 2 μM (below CMC)) was 94.9%. The “intact (%) under 10 mM GSH at 2 μM” value ([1]; 8 h, Data 1, 2 μM (below CMC)) was 95%, the “intact (%) under 10 mM GSH” value ([1]; 8 h, Data 1, 50 μM) was 93.681% and the “intact (%) under 10 mM GSH at 2 μM” value ([1]; 8 h, Data 2, 2 μM (below CMC)) was 95.7%. For the same compound, the “intact (%) under 10 mM GSH” value ([1]; 8 h, Data 2, 50 μM) was 93.4607%, the “intact (%) under 10 mM GSH at 2 μM” value ([1]; 8 h, Data 3, 2 μM (below CMC)) was 96% and the “intact (%) under 10 mM GSH” value ([1]; 8 h, Data 3, 50 μM) was 95.7%. For the same compound, the “remained intact with 10 mM GSH at 2 μM” value ([1]; 12 h, 2 μM (below CMC), HPLC–MS 520 nm, mean of n = 3) was 95%, the “remained intact with 10 mM GSH” value ([1]; 12 h, 50 μM, HPLC–MS peak area 520 nm, mean of n = 3) was 96% and the “intact (%) under 10 mM GSH at 2 μM” value ([1]; 12 h, Data 1, 2 μM (below CMC)) was 96%. The “intact (%) under 10 mM GSH” value ([1]; 12 h, Data 1, 50 μM) was 94.9%, the “intact (%) under 10 mM GSH at 2 μM” value ([1]; 12 h, Data 2, 2 μM (below CMC)) was 95.4% and the “intact (%) under 10 mM GSH” value ([1]; 12 h, Data 2, 50 μM) was 97.6967%. The “intact (%) under 10 mM GSH at 2 μM” value ([1]; 12 h, Data 3, 2 μM (below CMC)) was 97%, the “intact (%) under 10 mM GSH” value ([1]; 12 h, Data 3, 50 μM) was 96.3405% and the remaining at 5 h, 50 μM (Stability in FBS (serum); bovine, serum, 5 h, 37 °C, 50 μM in 50% FBS/PBS (10% DMSO), HPLC–MS peak area 520 nm, n = 3, read-out: intact in serum) was 80%. For the same compound, the remaining at 1 h, 50 μM (Stability in FBS (serum); bovine, serum, Data 1) was 97%, the remaining at 1 h, 50 μM (Stability in FBS (serum); bovine, serum, Data 3) was 93% and the remaining at 2 h, 50 μM (Stability in FBS (serum); bovine, serum, Data 1) was 88%. It also gave a remaining at 2 h, 50 μM (Stability in FBS (serum); bovine, serum, Data 3) of 89%, a remaining at 3 h, 50 μM (Stability in FBS (serum); bovine, serum, Data 1) of 86% and a remaining at 3 h, 50 μM (Stability in FBS (serum); bovine, serum, Data 2) of 82%. The remaining at 3 h, 50 μM (Stability in FBS (serum); bovine, serum, Data 3) was 84%, the “RGD-Dox (%)” value (Stability in FBS (serum); 0 h, Data 2) was 100% and the “RGD-Dox (%)” value (Stability in FBS (serum); 0 h, Data 3) was 100%. For the same compound, the “RGD-Dox (%)” value (Stability in FBS (serum); 5 h, Data 1) was 80%, the “RGD-Dox (%)” value (Stability in FBS (serum); 5 h, Data 2) was 77% and the “RGD-Dox (%)” value (Stability in FBS (serum); 5 h, Data 3) was 81%. The “cellular fluorescence (uptake) in LX2 cells” value (LX2 cells) was “negligible fluorescence”, the Normalized uptake (B16F10 cells [2]; normalized to Dox = 1, Data 1) was 22.44 and the Normalized uptake (B16F10 cells [2]; normalized to Dox = 1, Data 2) was 22.03. The Normalized uptake (B16F10 cells [2]; normalized to Dox = 1, Data 3) was 17.85, the “cellular uptake of RGD-Dox (flow cytometry)” value (shortened to “cellular uptake of RGD-Dox”) (B16F10 cells [3]; 0.5 h, Data 2) was 4811 and the “cellular uptake of RGD-Dox” value (B16F10 cells [3]; 1 h, Data 1) was 7075. The “cellular uptake of RGD-Dox” value (B16F10 cells [3]; 1 h, Data 2) was 6214, the “cellular uptake of RGD-Dox” value (B16F10 cells [3]; 2 h, Data 2) was 11247 and the “cellular uptake of RGD-Dox” value (B16F10 cells [3]; 2 h, Data 3) was 9887. The “cellular uptake of RGD-Dox” value (B16F10 cells [3]; 3 h, Data 1) was 12006, the “cellular uptake of RGD-Dox” value (B16F10 cells [3]; 3 h, Data 2) was 12578 and the “cellular uptake of RGD-Dox” value (B16F10 cells [3]; 4 h, Data 2) was 13144.
